Data taken from paper PMC4428678.

Biological target: His-tagged human CRMP-2 (residues 1-490) (human) (UniProt Q16555)
Assay: SPR

Kd: 75 µM
Substance: Recombinant human calmodulin (from UniProt P0DP23 1-149) (natural protein)
